Literature values in publication PMC5753338.

Biological target: BAIAP2L1/IRTKS SH3 (Homo sapiens) (UniProt Q9UHR4)
UniProt Q9UHR4, sequence (Q9UHR4 336-405): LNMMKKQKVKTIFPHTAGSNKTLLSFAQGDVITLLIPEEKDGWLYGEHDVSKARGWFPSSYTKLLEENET

Substance: EspFU PxxP motifs (from UniProt P0DJ88)
- Kd: 500 nM
